Results as given in patent publication US10538583 (dated 2020).

What was measured:
[1] = biological target: human ApoC3 (human); test: SPR pH 5.5, antibody immobilized
[2] = biological target: human ApoC3 (human); test: SPR pH 7.4
[3] = biological target: human ApoC3 (human); test: SPR pH 7.4, antibody immobilized
[4] = biological target: human ApoC3 (human); test: SPR pH 5.5

Sequence of human ApoC3 (human) (chain, as listed by the source): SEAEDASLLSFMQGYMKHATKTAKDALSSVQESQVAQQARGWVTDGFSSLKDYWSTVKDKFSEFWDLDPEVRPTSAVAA

Binder	Kd [1]	Kd [2]	Kd [3]	Kd [4]
mAb2 (antibody, V domains shown) VH: QLVESGGGLVQPGGSLRLSCAASGFTFGTYSMRWVRQVPGKGLEWVSSIHTEGGGTAYRDSVKGRFTISRDNAKNTLYLQMNSLRAEDTAIYYCVIAGYSDWGQGTLVTVSS VL: DIVMTQSPLSLPVTPGESASISCKTSQGLVHSDGKTYFYWFLQKPGQSPQQLIYQVSNRASGVPDRFSGSGSGTDFTLKISRVKAEDAGVYYCAHGTYYPHTFGQGTRLEIK	290 nM	0.0552 nM	103 nM	0.283 nM
mAb6 (antibody, V domains shown) VH: QLVESGGGLVQPGGSLRLSCAASGFTFGTYSMRWVRQAPGKGLEWVSSIHTEGGGTAYRDSVKGRFTISRDNAKNTLYLQMNSLRAEDTAVYYCVIAGYSDWGQGTLVTVSS VL: DIVMTQSPLSLPVTPGESASISCKTSQGLVHSDGKTYFYWFLQKPGQSPQQLIYQVSNRASGVPDRFSGSGSGTDFTLKISRVKAEDAGVYYCAHGTYYPHTFGQGTRLEIK	861 nM	0.0599 nM	165 nM	0.347 nM
mAb9 (antibody, V domains shown) VH: QLVESGGGLVQPGGSLRLSCAASGFTFSTYSMRWVRQAPGKGLEWVSSIHTDAGGTAYRDSVKGRFTISRDNAKNTLYLQMNNLRAEDTAVYYCVIAGYSDWGQGTLVTVSS VL: DIVMTQSPLSLSVTPGEPASISCKTSQGLVHSDGKTYFYWFLQKPGQSPQQLIYQVSNRASGVPDRFSGSGSGTDFTLKISRVEAEDVGVYYCAHGTYYPHTFGQGTRLEIK	541 nM	0.149 nM	232 nM	0.759 nM
mAb14 (antibody, V domains shown) VH: QLLESGGGLVQPGGSLRLSCAASGFTFGTYSMRWVRQVPGKGLEWVSSIHTEGGGTAYRDSVKGRFTISRDNSKNTLYLQMNSLRAEDTAVYYCVIAGYSDWGQGTLVTVSS VL: DIVMTQSPLSLPVTPGEPASISCKTSQGLVHSDGKTYFYWYLQKPGQSPQLLIYQVSNRASGVPDRFSGSGSGTDFTLKISRVEAEDVGVYYCAHGTYYPHTFGQGTRLEIK	–	2.96 nM	1760 nM	21.3 nM
mAb20 (antibody, V domains shown) VH: QLVESGGGLVQPGGSLRLSCAASGFTFSTYSMRWVRQAPGKGLEWVSSIHTDAGGTAYRDSVKGRFTISRDNAKNTLYLQMNNLRPEDTAVYYCVIAGYSDWGQGTLVTVSS VL: DIVMTQSPGSLSVTPGEPASISCKTSQGLVHSGGKTYFYWFLQKPGQSPQQLIYQVSNRASGVPDRFTGSGSGTDFTLKISGVEAEDAGVYYCAHGTYYPHTFGQGTRLEIK	–	0.586 nM	1340 nM	9.44 nM
mAb3 (antibody, V domains shown) VH: QLVESGGGLVQPGGSLRLSCAASGFTFGTYSMRWVRQAPGKGLEWVSSIHTEGGGTAYRDSVKGRFTISRDNAKNTLYLQMNSLRAEDTAIYYCVIAGYSDWGQGTLVTVSS VL: DIVMTQSPLSLPVTPGESASISCKTSQGLVHSDGKTYFYWFLQKPGQSPQQLIYQVSNRASGVPDRFTGSGSGTDFTLKISRVKAEDAGVYYCAHGTYYPHTFGQGTRLEIK	323 nM	0.11 nM	174 nM	0.351 nM
mAb18 (antibody, V domains shown) VH: QLVESGGGLVQPGGSLRLSCAASGFTFSTYSMRWVRQAPGKGLEWVSSIHTEAGGTAYRDSVKGRFTISRDNAKNTLYLQMNNLRAEDTAVYYCVIAGYSDWGQGTLVTVSS VL: DIVMTQSPLSLPVTPGEPASISCKTSQGLVHSGGKTYFYWFLQKPGQSPQQLIYQVSNRASGVPDRFTGSGSGTDFTLKISRVEAEDAGVYYCAHGTYYPHTFGQGTRLEIK	–	1.33 nM	509 nM	8.62 nM
mAb17 (antibody, V domains shown) VH: QLVESGGGLVQPGGSLRLSCAASGFTFSTYSMRWVRQAPGKGLEWVSSIHTEAGGTAYRDSVKGRFTISRDNAKNTLYLQMNNLRAEDTAVYYCVIAGYSDWGQGTLVTVSS VL: DIVMTQSPLSLPVTPGEPASISCKTSQGLVHSGGKTYFYWFLQKPGQSPQQLIYQVSNRASGVPDRFTGSGSGTDFTLKISRVEAEDAGVYYCAQGTYYPHTFGQGTRLEIK	257 nM	0.0464 nM	62.4 nM	0.342 nM
mAb7 (antibody, V domains shown) VH: QLVESGGGLVQPGGSLRLSCAASGFTFSTYSMRWVRQAPGKGLEWVSSIHTGGGGTAYRDSVKGRFTISRDNAKNTLYLQMNNLRAEDTAIYYCVIAGYSDWGQGTLVTVSS VL: DIVMTQSPLSLPVTPGESASISCKTSQGLVHSDGKTYFYWFLQKPGQSPQQLIYQVSNRASGVPDRFSGSGSGTDFTLKISRVKAEDAGVYYCAHGTYYPHTFGQGTRLEIK	583 nM	0.0928 nM	247 nM	4.89 nM
mAb13 (antibody, V domains shown) VH: QLLESGGGLVQPGGSLRLSCAASGFTFSTYSMRWVRQVPGKGLEWVSSIHTEGGGTAYRDSVKGRFTISRDNSKNTLYLQMNSLRAEDTAVYYCVIAGYSDWGQGTLVTVSS VL: DIVMTQSPLSLPVTPGEPASISCKTSQGLVHSDGKTYFYWYLQKPGQSPQLLIYQVSNRASGVPDRFSGSGSGTDFTLKISRVEAEDVGVYYCAHGTYYPHTFGQGTRLEIK	–	4.19 nM	1000 nM	5.56 nM
mAb19 (antibody, V domains shown) VH: QLVESGGGLVQPGGSLRLSCAASGFTFSTYSMRWVRQAPGKGLEWVSSIHTDAGGTAYRDSVKGRFTISRDNAKNTLYLQMNNLRPEDTAVYYCVIAGYSDWGQGTLVTVSS VL: DIVMTQSPGSLSVTPGEPASISCKTSQGLVHSGGKTYFYWFLQKPGQSPQQLIYQVSNRASGVPDRFTGSGSGTDFTLKISGVEAEDAGVYYCAQGTYYPHTFGQGTRLEIK	157 nM	0.0453 nM	35.5 nM	0.417 nM
mAb8 (antibody, V domains shown) VH: QLVESGGGLVQPGGSLRLSCAASGFTFSTYSMRWVRQAPGKGLEWVSSIHTDAGGTAYRDSVKGRFTISRDNAKNTLYLQMNNLRAEDTAVYYCVIAGYSDWGQGTLVTVSS VL: DIVMTQSPLSLSVVPGEPASISCKTSQGLVHSDGKTYFYWFLQKPGQSPQQLIYQVSNRASGVPDRFSGSGSGTDFTLKISRVEAEDVGVYYCAHGTYYPHTFGQGTRLEIK	242 nM	0.102 nM	241 nM	0.749 nM
mAb16 (antibody, V domains shown) VH: QLVESGGGLVQPGGSLRLSCAASGFTFGTYSMRWVRQAPGKGLEWVSSIHTEAGGTAYRDSVKGRFTISRDNAKNTLYLQMNNLKAEDTAIYYCVIAGYSDWGQGTQVTVSS VL: DIVMTQSPLSLPVTPGESASISCKTSQGLVHSGGKTYFYWFLQKPGQSPQQLIYQVSNRASGVPDRFTGSGSGTDFTLKISRVEAEDAGVYYCAHGTYYPHTFGSGTRLEIK	–	0.687 nM	596 nM	7.44 nM
mAb15 (antibody, V domains shown) VH: QLVESGGGLVQPGGSLRLSCAASGFTFGTYSMRWVRQAPGKGLEWVSSIHTEAGGTAYRDSVKGRFTISRDNAKNTLYLQMNNLKAEDTAIYYCVIAGYSDWGQGTQVTVSS VL: DIVMTQSPLSLPVTPGESASISCKTSQGLVHSGGKTYFYWFLQKPGQSPQQLIYQVSNRASGVPDRFTGSGSGTDFTLKISRVEAEDAGVYYCAQGTYYPHTFGSGTRLEIK	86.2 nM	0.00538 nM	34.7 nM	0.353 nM
mAb4 (antibody, V domains shown) VH: QLVESGGGLVQPGGSLRLSCAASGFTFGTYSMRWVRQAPGKGLEWVSSIHTEGGGTAYRDSVKGRFTISRDNAKNTLYLQMNSLRAEDTAIYYCVIAGYSDWGQGTLVTVSS VL: DIVMTQSPLSLPVTPGESASISCKTSQGLVHSDGKTYFYWFLQKPGQSPQQLIYQVSNRASGVPDRFSGSGSGTDFTLKISRVKAEDAGVYYCAHGTYYPHTFGQGTRLEIK	432 nM	0.00464 nM	124 nM	0.374 nM
mAb1 (antibody, V domains shown) VH: QLVESGGGLVQPGGSLRLSCAASGFTFGTYSMRWVRQVPGKGLEWVSSIHTEGGGTAYRDSVKGRFTISRDNAKNTLYLQMNSLRAEDTAIYYCVIAGYSDWGQGTLVTVSS VL: DIVMTQSPLSLPVTPGESASISCKTSQGLVHSDGKTYFYWFLQKPGQSPQQLIYQVSNRASGVPDRFTGSGSGTDFTLKISRVKAEDAGVYYCAHGTYYPHTFGQGTRLEIK	253 nM	0.0454 nM	73.9 nM	0.237 nM
mAb11 (antibody, V domains shown) VH: QLVESGGGLVQPGGSLRLSCAASGFTFSTYSMRWVRQVPGKGLEWVSSIHTEGGGTAYRDSVKGRFTISRDNAKNTLYLQMNNLRAEDTAVYYCVIAGYSDWGQGTLVTVSS VL: DIVMTQSPLSLSVTPGEPASISCKTSQGLVHSDGKTYFYWFLQKPGQSPQQLIYQVSNRASGVPDRFSGSGSGTDFTLKISRVEAEDVGVYYCAHGTYYPHTFGQGTRLEIK	503 nM	0.173 nM	129 nM	0.331 nM
mAb10 (antibody, V domains shown) VH: QLVESGGGLVQPGGSLRLSCAASGFTFSTYSMRWVRQVPGKGLEWVSSIHTEGGGTAYRDSVKGRFTISRDNAKNTLYLQMNNLRAEDTAVYYCVIAGYSDWGQGTLVTVSS VL: DIVMTQSPLSLSVVPGEPASISCKTSQGLVHSDGKTYFYWFLQKPGQSPQQLIYQVSNRASGVPDRFSGSGSGTDFTLKISRVEAEDVGVYYCAHGTYYPHTFGQGTRLEIK	334 nM	0.0956 nM	189 nM	0.27 nM
mAb5 (antibody, V domains shown) VH: QLVESGGGLVQPGGSLRLSCAASGFTFGTYSMRWVRQAPGKGLEWVSSIHTEGGGTAYRDSVKGRFTISRDNAKNTLYLQMNSLRAEDTAVYYCVIAGYSDWGQGTLVTVSS VL: DIVMTQSPLSLPVTPGESASISCKTSQGLVHSDGKTYFYWFLQKPGQSPQQLIYQVSNRASGVPDRFTGSGSGTDFTLKISRVKAEDAGVYYCAHGTYYPHTFGQGTRLEIK	408 nM	0.148 nM	181 nM	0.345 nM
